Measurements reported in PMC4231161.

Key:
[1] = molecular target: myosin light chain 1 (MLC1) (Toxoplasma gondii (endogenous in tachyzoites)); experiment: co-IP; polyclonal anti-MLC1 or anti-GAP45 antibodies on [35S]-labelled wild type (RH) and MyoA-KO parasites and on MyoA-iKO parasites +/- ATc, Triton X-100 lysate, autoradiography, bands quantified with ImageJ
[2] = molecular target: gliding-associated protein GAP45 (Toxoplasma gondii (endogenous in tachyzoites)) (UniProt Q7Z289); experiment: as above

With myosin C (MyoC) (natural protein) the more MyoC co-precipitated in the absence of MyoA than in its presence [1] was 50% and the more MyoC co-precipitated in the absence of MyoA than in its presence [2] was 50%.
